Data as given in IntAct's records for PubMed 11734542.

B1: Protein phosphatase EYA1 (Mus musculus), P97767 (parent)
chain: MEMQDLTSPHSRLSGSSESPSGPKLDSSHINSTSMTPNGTEVKTEPMSSSEIASTAADGSLDSFSGSALGSSSFSPRPAHPFSPPQIYPSKSYPHILPTPSSQTMAAYGQTQFTTGMQQATAYATYPQPGQPYGISSYGALWAGIKTESGLSQSQSPGQTGFLSYGTSFGTPQPGQAPYSYQMQGSSFTTSSGLYSGNNSLTNSSGFNSSQQDYPSYPGFGQGQYAQYYNSSPYPAHYMTSSNTSPTTPSTNATYQLQEPPSGVTSQAVTDPTAEYSTIHSPSTPIKETDSERLRRGSDGKSRGRGRRNNNPSPPPDSDLERVFIWDLDETIIVFHSLLTGSYANRYGRDPPTSVSLGLRMEEMIFNLADTHLFFNDLEECDQVHIDDVSSDDNGQDLSTYNFGTDGFPAAATSANLCLATGVRGGVDWMRKLAFRYRRVKEIYNTYKNNVGGLLGPAKREAWLQLRAEIEALTDSWLTLALKALSLIHSRTNCVNILVTTTQLIPALAKVLLYGLGIVFPIENIYSATKIGKESCFERIIQRFGRKVVYVVIGDGVEEEQGAKKHAMPFWRVSSHSDLMALHHALELEYL
partner: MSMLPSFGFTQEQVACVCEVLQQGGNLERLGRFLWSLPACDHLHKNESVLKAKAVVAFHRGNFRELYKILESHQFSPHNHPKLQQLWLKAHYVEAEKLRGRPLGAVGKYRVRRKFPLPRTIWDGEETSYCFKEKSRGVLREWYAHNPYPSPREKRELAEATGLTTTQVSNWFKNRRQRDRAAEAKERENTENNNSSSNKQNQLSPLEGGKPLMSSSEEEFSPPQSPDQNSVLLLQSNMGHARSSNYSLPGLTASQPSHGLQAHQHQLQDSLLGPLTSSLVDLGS

Variants of: B1
Conditions: with six1_mouse Six1, Q62231

Row | Variant | effect of a mutation on the interaction
1 | MEMQDLTSPHSRLSGSSESPSGPKLDSSHINSTSMTPNGTEVKTEPMSSSEIASTAADGSLDSFSGSALGSSSFSPRPAHPFSPPQIYPSKSYPHILPTPSSQTMAAYGQTQFTTGMQQATAYATYPQPGQPYGISSYGALWAGIKTESGLSQSQSPGQTGFLSYGTSFGTPQPGQAPYSYQMQGSSFTTSSGLYSGNNSLTNSSGFNSSQQDYPSYPGFGQGQYAQYYNSSPYPAHYMTSSNTSPTTPSTNATYQLQEPPSGVTSQAVTDPTAEYSTIHSPSTPIKETDSERLRRGSDGKSRGRGRRNNNPSPPPDSDLERVFIWDLDETIIVFHSLLTGSYANRYGRDPPTSVSLGLRMEEMIFNLADTHLFFNDLEECDQVHIDDVSSDDNGQDLSTYNFGTDGFPAAATSANLCLATGVRGGVDWMRKLAFRYRRVKEIYNTYKNNVGGLLGPAKREAWLQLRAEIEALTDSWLTLALKALSLIHSRTNCVNILVTTTQRIPALAKVLLYGLGIVFPIENIYSATKIGKESCFERIIQRFGRKVVYVVIGDGVEEEQGAKKHAMPFWRVSSHSDLMALHHALELEYL [L504R] | disrupting interaction
2 | MEMQDLTSPHSRLSGSSESPSGPKLDSSHINSTSMTPNGTEVKTEPMSSSEIASTAADGSLDSFSGSALGSSSFSPRPAHPFSPPQIYPSKSYPHILPTPSSQTMAAYGQTQFTTGMQQATAYATYPQPGQPYGISSYGALWAGIKTESGLSQSQSPGQTGFLSYGTSFGTPQPGQAPYSYQMQGSSFTTSSGLYSGNNSLTNSSGFNSSQQDYPSYPGFGQGQYAQYYNSSPYPAHYMTSSNTSPTTPSTNATYQLQEPPSGVTSQAVTDPTAEYSTIHSPSTPIKETDSERLRRGSDGKSRGRGRRNNNPSPPPDSDLERVFIWDLDKTIIVFHSLLTGSYANRYGRDPPTSVSLGLRMEEMIFNLADTHLFFNDLEECDQVHIDDVSSDDNGQDLSTYNFGTDGFPAAATSANLCLATGVRGGVDWMRKLAFRYRRVKEIYNTYKNNVGGLLGPAKREAWLQLRAEIEALTDSWLTLALKALSLIHSRTNCVNILVTTTQLIPALAKVLLYGLGIVFPIENIYSATKIGKESCFERIIQRFGRKVVYVVIGDGVEEEQGAKKHAMPFWRVSSHSDLMALHHALELEYL [E330K] | disrupting interaction
3 | MEMQDLTSPHSRLSGSSESPSGPKLDSSHINSTSMTPNGTEVKTEPMSSSEIASTAADGSLDSFSGSALGSSSFSPRPAHPFSPPQIYPSKSYPHILPTPSSQTMAAYGQTQFTTGMQQATAYATYPQPGQPYGISSYGALWAGIKTESGLSQSQSPGQTGFLSYGTSFGTPQPGQAPYSYQMQGSSFTTSSGLYSGNNSLTNSSGFNSSQQDYPSYPGFGQGQYAQYYNSSPYPAHYMTSSNTSPTTPSTNATYQLQEPPSGVTSQAVTDPTAEYSTIHSPSTPIKETDSERLRRGSDGKSRGRGRRNNNPSPPPDSDLERVFIWDLDETIIVFHSLLTGSYANRYGRDPPTSVSLGLRMEEMIFNLADTHLFFNDLEECDQVHIDDVSSDDNGQDLSTYNFGTDGFPAAATSANLCLATGVRGGVDWMRKLAFRYRRVKEIYNTYKNNVGGLLGPAKREAWLQLRAEIEALTDSWLTLALKALPLIHSRTNCVNILVTTTQLIPALAKVLLYGLGIVFPIENIYSATKIGKESCFERIIQRFGRKVVYVVIGDGVEEEQGAKKHAMPFWRVSSHSDLMALHHALELEYL [S486P] | disrupting interaction

Variants of: B1
Conditions: with six1_mouse Six1, Q62231
Remark: another data set of the same source

Row | Variant | effect of a mutation on the interaction
4 | MEMQDLTSPHSRLSGSSESPSGPKLDSSHINSTSMTPNGTEVKTEPMSSSEIASTAADGSLDSFSGSALGSSSFSPRPAHPFSPPQIYPSKSYPHILPTPSSQTMAAYGQTQFTTGMQQATAYATYPQPGQPYGISSYGALWAGIKTESGLSQSQSPGQTGFLSYGTSFGTPQPGQAPYSYQMQGSSFTTSSGLYSGNNSLTNSSGFNSSQQDYPSYPGFGQGQYAQYYNSSPYPAHYMTSSNTSPTTPSTNATYQLQEPPSGVTSQAVTDPTAEYSTIHSPSTPIKETDSERLRRGSDGKSRGRGRRNNNPSPPPDSDLERVFIWDLDETIIVFHSLLTGSYANRYGRDPPTSVSLGLRMEEMIFNLADTHLFFNDLEECDQVHIDDVSSDDNGQDLSTYNFGTDGFPAAATSANLCLATGVRGGVDWMRKLAFRYRRVKEIYNTYKNNVGGLLGPAKREAWLQLRAEIEALTDSWLTLALKALSLIHSRTNCVNILVTTTQRIPALAKVLLYGLGIVFPIENIYSATKIGKESCFERIIQRFGRKVVYVVIGDGVEEEQGAKKHAMPFWRVSSHSDLMALHHALELEYL [L504R] | decreasing interaction
5 | MEMQDLTSPHSRLSGSSESPSGPKLDSSHINSTSMTPNGTEVKTEPMSSSEIASTAADGSLDSFSGSALGSSSFSPRPAHPFSPPQIYPSKSYPHILPTPSSQTMAAYGQTQFTTGMQQATAYATYPQPGQPYGISSYGALWAGIKTESGLSQSQSPGQTGFLSYGTSFGTPQPGQAPYSYQMQGSSFTTSSGLYSGNNSLTNSSGFNSSQQDYPSYPGFGQGQYAQYYNSSPYPAHYMTSSNTSPTTPSTNATYQLQEPPSGVTSQAVTDPTAEYSTIHSPSTPIKETDSERLRRGSDGKSRGRGRRNNNPSPPPDSDLERVFIWDLDKTIIVFHSLLTGSYANRYGRDPPTSVSLGLRMEEMIFNLADTHLFFNDLEECDQVHIDDVSSDDNGQDLSTYNFGTDGFPAAATSANLCLATGVRGGVDWMRKLAFRYRRVKEIYNTYKNNVGGLLGPAKREAWLQLRAEIEALTDSWLTLALKALSLIHSRTNCVNILVTTTQLIPALAKVLLYGLGIVFPIENIYSATKIGKESCFERIIQRFGRKVVYVVIGDGVEEEQGAKKHAMPFWRVSSHSDLMALHHALELEYL [E330K] | decreasing interaction
6 | MEMQDLTSPHSRLSGSSESPSGPKLDSSHINSTSMTPNGTEVKTEPMSSSEIASTAADGSLDSFSGSALGSSSFSPRPAHPFSPPQIYPSKSYPHILPTPSSQTMAAYGQTQFTTGMQQATAYATYPQPGQPYGISSYGALWAGIKTESGLSQSQSPGQTGFLSYGTSFGTPQPGQAPYSYQMQGSSFTTSSGLYSGNNSLTNSSGFNSSQQDYPSYPGFGQGQYAQYYNSSPYPAHYMTSSNTSPTTPSTNATYQLQEPPSGVTSQAVTDPTAEYSTIHSPSTPIKETDSERLRRGSDGKSRGRGRRNNNPSPPPDSDLERVFIWDLDETIIVFHSLLTGSYANRYGRDPPTSVSLGLRMEEMIFNLADTHLFFNDLEECDQVHIDDVSSDDNGQDLSTYNFGTDGFPAAATSANLCLATGVRGGVDWMRKLAFRYRRVKEIYNTYKNNVGGLLGPAKREAWLQLRAEIEALTDSWLTLALKALPLIHSRTNCVNILVTTTQLIPALAKVLLYGLGIVFPIENIYSATKIGKESCFERIIQRFGRKVVYVVIGDGVEEEQGAKKHAMPFWRVSSHSDLMALHHALELEYL [S486P] | decreasing interaction
